The values below come from US20140271467A1 (Stanford University, published 2014).

Assay [1] has as its target T1, biotinylated human CD20 extracellular loop peptide (amino acids 165-185) (human, biotin at the C-terminus (printed as SEQ ID NO: 1-biotin)).
T1 construct: Chemically synthesized; also called CD20 peptide; biotin-CD20 peptide
T1 peptide: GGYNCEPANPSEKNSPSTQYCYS
The assay can be described thus: selection from the G4 library against the CD20 peptide. The source says:
The human CD20 peptide extracellular loop was synthesized (amino acids: 165-185; […] (SEQ ID NO: 1)-biotin) and purified by RP-HPLC on a C-18 column and lyophilized as per the published procedure (29). This peptide was characterized by ESI-MS and immobilized on streptavidin magnetic beads for screening of FN3 binders. […] Briefly, yeast displaying 2.5×10⁸ FN3 mutants were sorted for binding to magnetic beads with immobilized CD20 peptide, followed by fluorescence-activated cell sorting for full-length proteins using the C-terminal c-myc epitope. Plasmid DNA from selected clones was recovered, mutated by error-prone PCR of either the entire FN3 gene or the paratope loops, and reintroduced into yeast by electroporation with homologous recombination. As binder enrichment progressed in later evolutionary cycles, fluorescence-activated cell sorting for binding to soluble CD20 peptide was also used. Six cycles of selection and mutation were performed. Plasmid DNA was recovered, transformed into bacteria, and individual clones were sequenced by standard DNA sequencing methods.

The target in assay [2] is T1, biotinylated human CD20 extracellular …. Nature of the assay: affinity titration with yeast surface display and flow cytometry, biotinylated CD20.
In assay [3] the target is T2, human CD20 antigen on live Ramos cells (human, UniProt P11836 1-297).
T2 construct: whole, on cells; Endogenous CD20 on Ramos cells (ATCC); also called cellular CD20; huCD20
T2 sequence (looked up): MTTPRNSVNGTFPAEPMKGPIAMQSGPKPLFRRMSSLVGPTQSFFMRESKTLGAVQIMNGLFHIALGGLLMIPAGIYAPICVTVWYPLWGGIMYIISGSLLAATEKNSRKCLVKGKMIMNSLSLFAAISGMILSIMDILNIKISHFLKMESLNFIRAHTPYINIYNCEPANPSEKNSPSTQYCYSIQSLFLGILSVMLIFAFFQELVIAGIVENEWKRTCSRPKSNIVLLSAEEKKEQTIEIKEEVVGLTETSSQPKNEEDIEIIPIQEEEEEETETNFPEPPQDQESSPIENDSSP
Nature of the assay: flow cytometry on live Ramos cells, 1:1 fit; flow cytometry, live Ramos cells (cellular CD20). The method, then: FIG. 1C illustrates a graph showing the antigen-binding activity of FN3CD20. Ramos cells were incubated with the indicated concentration (0.5-80 nM) of FITC-FN3CD20 for 1 h at 4° C. Cells were washed and analyzed by flow cytometry. The data are expressed as the mean±standard deviation of three independent experiments. Data were normalized with respect to saturated fluorescence intensity (plateau) observed at the highest target concentrations.

Assay [4] deals with T1, biotinylated human CD20 extracellular …. Nature of the assay: SPR (Biacore), biotin-CD20 peptide on a streptavidin chip, 1:1 fit, 25 C; SPR, CD20 peptide (amino acids 165-185). On the procedure:
FN3CD20 protein (0.4, 2, 10, 50, 250, and 750 nM) was diluted in HBS and injected into the chip at a flow rate of 15 μL/min for 1 min at 25° C.
All measurements were performed at 25° C. on a BIAcore 100 instrument and streptavidin chip (GE healthcare Biosciences, PA). The streptavidin chip was first cleaned with three consecutive 1-min. injections of 40 μl, of a solution of 1 M NaCl in 50 mM NaOH before the immobilization procedure. Five minutes after the cleaning process when the sensorgram reached a stable baseline, biotynalated CD20 peptide, diluted in running buffer to 20 μg/mL, was injected for 7 min. using a flow rate of 5 μL/min. The same procedure was performed for immobilization of non-specific CD20 peptide, except that the non-specific CD20 peptide was diluted in running buffer to 200 μg/ml. To attain maximum immobilization level of biotin peptides on the surface of streptavidin, multiple injections were performed.
Target antigen of CD20 peptide was immobilized on a streptavidin chip. FN3CD20 was analyzed in 10 mM HEPES, pH 7.4, 150 mM NaCl, 0.005% Tween 20 at […] concentrations between 0 and 750 nM, and non-specific FN3 was used as control. The flow-rate was 15 μl/min; association and dissociation times were 1 and 2 min, respectively. […] The data were analyzed using BIAeval (BIAcore) software, with a global fitting to the 1:1 binding model. […]

The target of assay [5] is T2, human CD20 antigen on live Ramos cells. The assay can be described thus: radiotracer binding to Ramos cells.

Numbering of substitutions follows the chain as printed.

B1: FN3CD20-01 (fibronectin type 3 domain clone selected against the CD20 peptide from the G4 library) (designed binder)
chain: ASVSDVPRDLEVVAATPTSLLISWHYTCAGSYRITYGETGGNSPVQEFTVPGSWKTATISGLKPGVDYTITVYAVTHYYGWDRYSHPISINYRTGSHHHHHH
notes: It was a library clone during selection
For B1, the binding result in assay [1] is on record as “binds”.

B2: FN3CD20-02 (fibronectin type 3 domain clone selected against the CD20 peptide from the G4 library) (designed binder)
chain: B1 chain with G30D, G52W, S53Y, W54V, K55S, T56N, A74V
notes: as for B1
In the case of B2, the binding result in assay [1] is on record as “binds”.

B3: FN3CD20 clone displayed on the yeast surface (designed binder, not shown: large carriers)
chain: ASVSDVPRDLEVVAATPTSLLISWCRQRCADSYRITYGETGGNSPVQEFTVPGSWKTATISGLKPGVDYTITVYVVTHYYGWDRYSHPISINYRTGSHHHHHH
notes: also called one clone; this clone
On to B3, for which the Kd in assay [2] turned out to be 14.3 nM.

B4: FN3CD20 (engineered fibronectin type 3 domain binding CD20, soluble, C-terminal His6 tag) (designed binder)
chain: B3 chain
notes: Made in E. coli with a His6 tag; also called FN3 scaffold
Consider B4, for which the Kd in assay [3] amounted to 20 nM; in assay [4], 22 nM.

B5: 64Cu-Do-FN3CD20 (64Cu-DOTA-labelled FN3CD20) (designed binder)
chain: B3 chain
modifications: DOTA conjugated to primary amines (1.8 DOTA molecules per FN3 protein), chelating 64Cu
notes: also called 64Cu-FN3CD20; 64Cu-FN3
For the molecule B5, the binding result in assay [5] is on record as “binds”.

B6: FN3CD20-03 (fibronectin type 3 domain clone selected against the CD20 peptide from the G4 library) (designed binder)
chain: ASVSDVPRDLGVVAATPTSLLISWHSSDVSYYRITYGETGGNSPVQEFTVPYWFTNTTISGLKPGVDYTITVYAATYRDCSSEPISINYRTGSHHHHHH
notes: as for B1
Regarding B6, the binding result in assay [1] is listed as “binds”.
